Data on one protein can be found in patent US20190105378.

For this series, the target named is FLAG-TEV recognition sequence-granzyme B AA21-240 fusion whose recognition site (SEQ ID NO: 6) has a G instead of Q, P10144.
Chain of FLAG-TEV recognition sequence-granzyme B AA21-240 fusion whose recognition site (SEQ ID NO: 6) has a G instead of Q, P10144 (P10144 whole entry, looked up, the tested form may be a part): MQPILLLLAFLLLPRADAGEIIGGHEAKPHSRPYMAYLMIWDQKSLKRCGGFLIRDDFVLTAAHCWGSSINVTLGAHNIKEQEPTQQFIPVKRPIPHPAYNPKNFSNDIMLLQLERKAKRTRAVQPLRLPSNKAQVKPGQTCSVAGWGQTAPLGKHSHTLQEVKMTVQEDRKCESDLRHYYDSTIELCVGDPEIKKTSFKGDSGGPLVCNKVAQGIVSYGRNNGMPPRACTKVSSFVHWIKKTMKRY

B1: tobacco etch virus protease with N-terminal FLAG sequence (product of plasmid pSTdna 1023) (protein)
chain: MDYKDDDDKGDYKDDDDKGGGTGESLFKGPRDYNPISSTICHLTNESDGHTTSLYGIGFGPFIITNKHLFRRNNGTLLVQSLHGVFKVKNTTTLQQHLIDGRDMIIIRMPKDFPPFPQKLKFREPQREERICLVTTNFQTKSMSSMVSDTSCTFPSSDGIFWKHWIQTKDGQCGSPLVSTRDGFIVGIHSASNFTNTNNYFTSVPKNFMELLTNQEAQQWVSGWRLNADSVLWGGHKVFMSKPEEPFQPVKEATQLMNELVYSQ
For B1, the “cleavage by TEV” value is recorded as “no cleavage by TEV takes place (not shown)”.
